Numbering of substitutions follows the chain as printed. Several values for one entry are separate records, joined by “and”; a condition that tells them apart may be missing. Identical values can stand only once.
B1: Tau01 HCKC (antibody, V domains shown)
VH: LVQLVESGGGLVQPGGSLKLSCAASGFTFNTYAMNWVRQASGKGLEWVGRIRSKSNNYATYYAASVKGRFTISRDDSKSMAYLQMDSLKTEDTAVYYCVGGGDFWGQGTLVTVSS
VL: DIQMTQSPSSLSASVGDRVTITCRASQEISVYLSWFQQKPGKAPKRLIYGAFKLQSGVPSRFSGSRSGTEYTLTISSLQPEDFATYYCLQYVRYPWTFGGGTKVEIK
notes: human IgG4 kappa (HuG4K)
B2: Tau01 HCKA (antibody, V domains shown)
VH: B1 VH
VL: B1 VL with S34G, F36Y, Y71F
notes: human IgG4 kappa (HuG4K)
B3: Tau01 HCKI (antibody, V domains shown)
VH: B1 VH
VL: B1 VL with S34G, F36Y
notes: human IgG4 kappa (HuG4K)
B4: HCKH (antibody, V domains shown)
VH: B1 VH
VL: B1 VL with S34G, F36Y, T69S, Y71F
notes: humanized variant, HC with KH; also called Tau01 HCKH HuG4K
B5: Tau01 HCKE (antibody, V domains shown)
VH: B1 VH
VL: B1 VL with S34G, Y71F
notes: human IgG4 kappa (HuG4K)
B6: Tau01 HCKJ (antibody, V domains shown)
VH: B1 VH
VL: B1 VL with S34G, F36Y, K53S, Y71F
notes: human IgG4 kappa (HuG4K)
B7: Tau01 HCKG (antibody, V domains shown)
VH: B1 VH
VL: B1 VL with S34G, F36Y, K53T, Y71F
notes: human IgG4 kappa (HuG4K)
B8: Tau01 HMKG (antibody, V domains shown)
VH: B1 VH with G49A
VL: B1 VL with S34G, F36Y, K53T, Y71F
notes: human IgG4 kappa (HuG4K)
B9: Tau01 HMKJ (antibody, V domains shown)
VH: B1 VH with G49A
VL: B1 VL with S34G, F36Y, K53S, Y71F
notes: human IgG4 kappa (HuG4K)
B10: Tau01 HMKI (antibody, V domains shown)
VH: B1 VH with G49A
VL: B1 VL with S34G, F36Y
notes: human IgG4 kappa (HuG4K)
B11: Tau01 HMKB (antibody, V domains shown)
VH: B1 VH with G49A
VL: B1 VL with P44I, K53T, T69S
notes: human IgG4 kappa (HuG4K)
B12: Tau01 HMKA (antibody, V domains shown)
VH: B1 VH with G49A
VL: B1 VL with S34G, F36Y, Y71F
notes: human IgG4 kappa (HuG4K)
B13: Tau01 HNKG (antibody, V domains shown)
VH: B1 VH with L4V
VL: B1 VL with S34G, F36Y, K53T, Y71F
notes: human IgG4 kappa (HuG4K)
B14: Tau01 HNKA (antibody, V domains shown)
VH: B1 VH with L4V
VL: B1 VL with S34G, F36Y, Y71F
notes: human IgG4 kappa (HuG4K)
B15: Tau01 HNKI (antibody, V domains shown)
VH: B1 VH with L4V
VL: B1 VL with S34G, F36Y
notes: human IgG4 kappa (HuG4K)
B16: Tau01 HNKJ (antibody, V domains shown)
VH: B1 VH with L4V
VL: B1 VL with S34G, F36Y, K53S, Y71F
notes: human IgG4 kappa (HuG4K)
B17: Tau01 HNKB (antibody, V domains shown)
VH: B1 VH with L4V
VL: B1 VL with P44I, K53T, T69S
notes: human IgG4 kappa (HuG4K)
B18: Tau01 HOKI (antibody, V domains shown)
VH: B1 VH with L4V, G49A
VL: B1 VL with S34G, F36Y
notes: human IgG4 kappa (HuG4K)
B19: Tau01 HOKB (antibody, V domains shown)
VH: B1 VH with L4V, G49A
VL: B1 VL with P44I, K53T, T69S
notes: human IgG4 kappa (HuG4K)
B20: Tau01 HOKJ (antibody, V domains shown)
VH: B1 VH with L4V, G49A
VL: B1 VL with S34G, F36Y, K53S, Y71F
notes: human IgG4 kappa (HuG4K)
B21: Tau01 HOKG (antibody, V domains shown)
VH: B1 VH with L4V, G49A
VL: B1 VL with S34G, F36Y, K53T, Y71F
notes: human IgG4 kappa (HuG4K)
B22: Tau01 HOKA (antibody, V domains shown)
VH: B1 VH with L4V, G49A
VL: B1 VL with S34G, F36Y, Y71F
notes: human IgG4 kappa (HuG4K)
B23: Tau01 HMKE HuG4k (antibody, V domains shown)
VH: B1 VH with G49A
VL: B1 VL with S34G, Y71F
notes: human IgG4 kappa (HuG4K); also called KMKE
B24: Tau01 HMKN HuG4k (antibody, V domains shown)
VH: B1 VH with G49A
VL: B1 VL with S34G, F36Y, K53T
notes: human IgG4 kappa (HuG4K)

target: T1, TauC3 (C-terminally truncated tau fragment ending at aspartate 421 of htau40) (human, UniProt P10636 1-738); assay: binding ELISA on coated TauC3, OD650
T1 construct: Generated and purified by Genscript; also called Human TauC3; recombinant TauC3 protein
T1 sequence (P10636 other isoform, or with tags, fused parts or gaps): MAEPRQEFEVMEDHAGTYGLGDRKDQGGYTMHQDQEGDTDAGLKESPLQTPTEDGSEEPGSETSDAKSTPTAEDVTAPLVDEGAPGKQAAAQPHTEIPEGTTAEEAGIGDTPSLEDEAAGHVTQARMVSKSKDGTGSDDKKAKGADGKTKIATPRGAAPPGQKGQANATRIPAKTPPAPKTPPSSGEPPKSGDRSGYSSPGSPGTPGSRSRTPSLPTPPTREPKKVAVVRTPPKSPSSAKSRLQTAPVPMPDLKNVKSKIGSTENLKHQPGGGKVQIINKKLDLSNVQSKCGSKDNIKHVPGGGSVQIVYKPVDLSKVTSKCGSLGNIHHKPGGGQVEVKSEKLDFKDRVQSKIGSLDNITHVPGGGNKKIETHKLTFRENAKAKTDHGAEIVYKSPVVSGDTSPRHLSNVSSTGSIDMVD
Method in brief: (§1)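 EC50 values come from antibody concentration-response curves in a binding ELISA on coated TauC3 antigen. The chimeric or humanized IgG4κ antibodies were produced in ExpiCHO cells, and binding was measured as absorbance at 650 nm.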

In order of rising EC50:
1. B1  1.34 nM
2. B2  6.45 nM

target: T1, TauC3 (C-terminally truncated tau …); assay: binding ELISA on coated TauC3, OD650; remark: another data set of the same source
Method in brief: as §1

In order of falling EC50:
1. B5  1.24 nM
2. B4  1.03 nM
3. B6  1.01 nM
4. B7  0.98 nM
5. B2  0.959 nM
6. B3  0.741 nM

target: T1, TauC3 (C-terminally truncated tau …); assay: binding ELISA on coated TauC3, OD650; remark: another data set of the same source
Method in brief: as §1

In order of rising EC50:
1. B11  0.412 nM
2. B9  0.522 nM
3. B8  0.543 nM
4. B10  0.549 nM
5. B12  0.556 nM

target: T1, TauC3 (C-terminally truncated tau …); assay: binding ELISA on coated TauC3, OD650; remark: another data set of the same source
Method in brief: as §1

In order of rising EC50:
1. B17  0.59 nM
2. B15  0.765 nM
3. B13  1.08 nM
4. B14  1.09 nM
5. B16  2.56 nM

target: T1, TauC3 (C-terminally truncated tau …); assay: binding ELISA on coated TauC3, OD650; remark: another data set of the same source
Method in brief: as §1

In order of rising EC50:
1. B22  0.389 nM
2. B18  0.482 nM
3. B19  0.51 nM
4. B20  0.556 nM
5. B21  0.604 nM

target: T2, full length Tau (2N4R, htau40) (human, UniProt P10636 1-758); assay: Octet, antibody on Protein G sensor, FL Tau in solution
T2 construct: Generated and purified by Genscript; also called FL Tau; FLT
T2 sequence (P10636 other isoform, or with tags, fused parts or gaps limits assumed): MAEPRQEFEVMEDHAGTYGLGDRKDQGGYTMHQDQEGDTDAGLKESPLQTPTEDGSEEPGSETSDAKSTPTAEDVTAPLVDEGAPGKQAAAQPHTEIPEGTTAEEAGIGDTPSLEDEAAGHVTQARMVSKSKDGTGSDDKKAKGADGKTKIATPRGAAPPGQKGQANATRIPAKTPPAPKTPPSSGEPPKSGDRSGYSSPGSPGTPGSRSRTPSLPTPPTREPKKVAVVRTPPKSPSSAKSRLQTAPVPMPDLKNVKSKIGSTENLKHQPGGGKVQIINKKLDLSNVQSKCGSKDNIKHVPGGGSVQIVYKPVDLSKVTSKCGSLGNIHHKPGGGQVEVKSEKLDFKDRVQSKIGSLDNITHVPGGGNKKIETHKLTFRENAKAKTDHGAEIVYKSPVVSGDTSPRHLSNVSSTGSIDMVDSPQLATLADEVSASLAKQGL
Method in brief: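 Antibody loaded on Protein G biosensors was tested by Bio-Layer Interferometry (OctetRed96) for binding to purified full-length tau in solution. The tau was made and purified by Genscript. Full-length tau was applied at 500 nM. The result is the binding signal response in nm.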

B23: no binding.
B24: no binding.

target: T1, TauC3 (C-terminally truncated tau …); assay: SPR (Biacore) kinetics, TauC3 amine-coupled on CM5, 1:1 global fit
Method in brief: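 Purified antigen was immobilised on a CM5 chip by amine coupling and studied by surface plasmon resonance (Biacore). Each purified antibody was injected over the chip as a concentration series. The data were fitted globally with a 1:1 model. That fit gave the association rate, dissociation rate and Kd.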

In order of falling Kd:
1. B24  0.025 nM
2. B23  0.02 nM

In order of rising koff:
1. B24  0.0015 s⁻¹
2. B23  0.00283 s⁻¹

In order of falling kon:
1. B23  1.41e+08 M⁻¹ s⁻¹
2. B24  6.03e+07 M⁻¹ s⁻¹

target: T1, TauC3 (C-terminally truncated tau …); assay: binding ELISA on coated TauC3, OD650; left table (HC variants)
Method in brief: as §1

In order of falling EC50:
1. B1  1.57 nM
2. B2  1.52 nM
3. B5  0.941 nM
4. B6  0.766 nM
5. B3  0.655 nM
6. B7  0.573 nM

target: T1, TauC3 (C-terminally truncated tau …); assay: binding ELISA on coated TauC3, OD650; right table (HM variants)
Method in brief: as §1

With B8 the EC50 was 0.515 nM and 0.607 nM.
B10 was tested, and the EC50 was 0.474 nM and 0.458 nM.
B23 was tested, and the EC50 was 0.437 nM and 0.532 nM.
For B12, the EC50 was 0.641 nM and 0.462 nM.

In order of rising EC50:
1. B9  0.433 nM
2. B7  0.573 nM
3. B24  0.624 nM

target: T1, TauC3 (C-terminally truncated tau …); assay: Biacore kinetics, TauC3 amine-coupled on CM5, antibody series, 1:1 global fit
From the text: To determine the affinity of the binding interactions, a biacore kinetic assay was developed which involved immobilizing TauC3 on a CM5 chip via amine coupling and injecting a concentration series of the respective antibody over it.

In order of falling Kd:
1. B24  0.0249 nM
2. B23  0.0201 nM

Binder B23 has a koff of 0.00283 s⁻¹.

target: T1, TauC3 (C-terminally truncated tau …); assay: Biacore off-rate ranking, TauC3 amine-coupled on CM5, one antibody concentration; one-phase exponential decay fit
Procedure: (§2) To further evaluate the binding data observed on the Octet, an off-rate ranking experiment was performed on the Biacore 200 instrument. Biacore offers greater selectivity than the Octet and facilitated the immobilization of TauC3 onto a CM5 chip via amine coupling which stabilizes the antigen. This produces higher quality data with stable baselines and good reproducible responses. Once TauC3 is immobilized, one concentration (5 nM) of antibody is added, followed by a dissociation and regeneration step (Section 8.20). The off-rates were fitted using a two-phase decay model (FIG. 25B) or a one phase decay fitting only the second off-rate (FIG. 25A). The candidates were then ranked based on the off-rates obtained using the fits and compared. The data agreed with the Octet results (albeit with a different ranking order), highlighting Tau01 HMKM, HMKO, HMKP, HMKN and HMKE as the humanized variants with the slowest off-rates. The lack of binding of FL Tau to chimeric and a humanized candidate was also confirmed by Biacore by loading the antibody onto a Protein G chip and adding 250 nM FL Tau.

In order of rising koff:
1. B8  0.000453 s⁻¹
2. B11  0.00062 s⁻¹
3. B24  0.000878 s⁻¹
4. B12  0.000882 s⁻¹
5. B23  0.000953 s⁻¹
6. B9  0.00136 s⁻¹
7. B10  0.00181 s⁻¹

target: T1, TauC3 (C-terminally truncated tau …); assay: Biacore off-rate ranking, TauC3 amine-coupled on CM5, one antibody concentration; two-phase decay fit, slow phase; parameters: unit not given here
Procedure: as §2

In order of falling Kslow:
1. B10  0.00179
2. B9  0.00123
3. B23  0.000883
4. B24  0.000823
5. B12  0.000815
6. B8  0.000384
7. B11  0.000138

target: T1, TauC3 (C-terminally truncated tau …); assay: binding ELISA on TauC3 after 21 days at 37 C in PBS or mouse, human, cynomolgus serum, with non-incubated control
Procedure: Purified samples of the chimeric and humanized antibodies were incubated in mouse, human and cynomolgus serum for 21 days. The binding of the Tau01 HMKE, HMKM, HMKN, HMKO, HMKP candidate antibodies which had been incubated in the 3 different serums were compared with an antibody incubated in PBS and a 4° C. positive control sample by binding ELISA to TauC3 (FIG. 37). The Tau01 HMKE, HMKM, HMKN, HMKO, HMKP candidate antibodies retained their binding capability after being incubated in mouse, human and cynomolgus serum.

In order of falling “EC50 (read off the curve)” value:
1. B23  ~0.8 nM
2. B24  ~0.5 nM

Reference: patent US20220064272A1 (TAUC3 BIOLOGICS, published 2022)
